B1: Tp0751 peptide p5 (peptide)
peptide: HHHHHHAMRIALWNRATHGEQGALQHLLAG
notes: One of 13 overlapping synthetic 24-mers spanning Tp0751 T46-P237; also called peptide 5
B2: Tp0751 peptide p3 (peptide)
peptide: HHHHHHTDPRSHGNAPPAPVGGAAQTHTQP
notes: One of 13 overlapping synthetic 24-mers spanning Tp0751 T46-P237; also called peptide 3
B3: Tp0751 peptide p8 (peptide)
peptide: HHHHHHFFDREHAEITFSRASVQEIFLVDS
notes: One of 13 overlapping synthetic 24-mers spanning Tp0751 T46-P237; also called negative control peptide
B4: Tp0751 peptide p10 (peptide)
peptide: HHHHHHRKTVSFLTRNTAISSIRRRLEVTF
notes: One of 13 overlapping synthetic 24-mers spanning Tp0751 T46-P237; also called peptide 10
B5: Tp0751 peptide p7 (peptide)
peptide: HHHHHHTEISPNSGDIHPLLFFDREHAEIT
notes: One of 13 overlapping synthetic 24-mers spanning Tp0751 T46-P237; also called peptide 7
B6: Tp0751 peptide p6 (peptide)
peptide: HHHHHHQGALQHLLAGLWIQTEISPNSGDI
notes: One of 13 overlapping synthetic 24-mers spanning Tp0751 T46-P237; also called peptide 6
B7: scrambled version of Tp0751 peptide 10 (p10scr) (peptide)
peptide: HHHHHHTSRVKLTISFERSLVNRTRTARFI
notes: Scrambled synthetic peptide; also called p10 scrambled peptide; scrambled version of peptide 10

Assays:
[1] = molecular target: T1, Plasminogen-depleted human fibrinogen (human, UniProt P02671 20-629; P02675 31-491; P02679 27-437); experiment: 96-well plate binding assay, immobilized host protein 0.5 µg/well, peptide 2.0 µg/well, A600
T1 construct: Bought protein, immobilized at 0.5 µg per well
T1 sequence 1: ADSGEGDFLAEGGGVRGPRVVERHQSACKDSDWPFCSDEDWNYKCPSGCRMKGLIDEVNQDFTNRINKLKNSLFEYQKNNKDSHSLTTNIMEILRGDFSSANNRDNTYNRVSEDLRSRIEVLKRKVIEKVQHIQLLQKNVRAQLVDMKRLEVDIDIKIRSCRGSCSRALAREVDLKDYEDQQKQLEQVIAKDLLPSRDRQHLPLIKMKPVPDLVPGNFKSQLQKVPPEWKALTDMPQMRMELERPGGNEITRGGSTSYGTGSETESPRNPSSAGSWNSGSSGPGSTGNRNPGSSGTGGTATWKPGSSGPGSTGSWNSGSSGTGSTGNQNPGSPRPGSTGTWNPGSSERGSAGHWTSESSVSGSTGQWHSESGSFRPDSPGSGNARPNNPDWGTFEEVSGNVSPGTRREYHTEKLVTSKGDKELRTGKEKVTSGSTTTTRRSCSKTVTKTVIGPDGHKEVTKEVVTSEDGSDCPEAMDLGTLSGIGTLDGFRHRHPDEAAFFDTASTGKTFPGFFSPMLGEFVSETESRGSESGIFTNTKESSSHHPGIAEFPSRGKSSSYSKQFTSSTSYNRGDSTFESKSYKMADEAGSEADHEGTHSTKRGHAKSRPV
T1 sequence 2: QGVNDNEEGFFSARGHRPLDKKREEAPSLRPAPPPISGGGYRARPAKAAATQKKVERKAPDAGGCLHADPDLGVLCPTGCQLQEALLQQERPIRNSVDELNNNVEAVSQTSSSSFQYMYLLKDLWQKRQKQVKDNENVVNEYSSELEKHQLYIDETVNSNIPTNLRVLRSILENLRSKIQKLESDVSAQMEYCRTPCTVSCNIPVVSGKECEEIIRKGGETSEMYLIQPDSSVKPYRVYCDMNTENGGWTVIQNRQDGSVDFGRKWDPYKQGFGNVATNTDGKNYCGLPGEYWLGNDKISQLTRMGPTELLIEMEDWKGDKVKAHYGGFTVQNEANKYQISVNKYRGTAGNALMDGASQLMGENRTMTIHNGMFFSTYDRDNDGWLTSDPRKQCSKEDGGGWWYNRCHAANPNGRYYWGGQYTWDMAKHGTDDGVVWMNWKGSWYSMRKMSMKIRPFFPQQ
T1 sequence 3: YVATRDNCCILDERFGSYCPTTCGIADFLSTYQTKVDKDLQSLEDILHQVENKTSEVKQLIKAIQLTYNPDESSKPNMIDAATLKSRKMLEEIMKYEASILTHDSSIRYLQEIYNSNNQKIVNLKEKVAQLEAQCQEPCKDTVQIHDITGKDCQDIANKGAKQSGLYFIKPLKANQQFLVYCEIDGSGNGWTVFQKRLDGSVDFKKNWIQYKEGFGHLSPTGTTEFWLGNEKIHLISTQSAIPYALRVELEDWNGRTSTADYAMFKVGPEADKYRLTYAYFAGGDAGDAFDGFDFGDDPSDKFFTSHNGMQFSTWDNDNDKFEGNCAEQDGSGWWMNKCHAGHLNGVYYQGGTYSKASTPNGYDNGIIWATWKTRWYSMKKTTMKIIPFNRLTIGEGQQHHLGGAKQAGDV

[2] = molecular target: T1, Plasminogen-depleted human fibrinogen; experiment: 96-well plate binding assay, immobilized host protein 0.5 µg/well, His-tagged peptide, A600
[3] = molecular target: T2, fibronectin isolated from human plasma (human, UniProt P02751 32-2296); experiment: as above
T2 construct: Bought protein, immobilized at 0.5 µg per well
T2 sequence (P02751 other isoform, or with tags, fused parts or gaps limits assumed): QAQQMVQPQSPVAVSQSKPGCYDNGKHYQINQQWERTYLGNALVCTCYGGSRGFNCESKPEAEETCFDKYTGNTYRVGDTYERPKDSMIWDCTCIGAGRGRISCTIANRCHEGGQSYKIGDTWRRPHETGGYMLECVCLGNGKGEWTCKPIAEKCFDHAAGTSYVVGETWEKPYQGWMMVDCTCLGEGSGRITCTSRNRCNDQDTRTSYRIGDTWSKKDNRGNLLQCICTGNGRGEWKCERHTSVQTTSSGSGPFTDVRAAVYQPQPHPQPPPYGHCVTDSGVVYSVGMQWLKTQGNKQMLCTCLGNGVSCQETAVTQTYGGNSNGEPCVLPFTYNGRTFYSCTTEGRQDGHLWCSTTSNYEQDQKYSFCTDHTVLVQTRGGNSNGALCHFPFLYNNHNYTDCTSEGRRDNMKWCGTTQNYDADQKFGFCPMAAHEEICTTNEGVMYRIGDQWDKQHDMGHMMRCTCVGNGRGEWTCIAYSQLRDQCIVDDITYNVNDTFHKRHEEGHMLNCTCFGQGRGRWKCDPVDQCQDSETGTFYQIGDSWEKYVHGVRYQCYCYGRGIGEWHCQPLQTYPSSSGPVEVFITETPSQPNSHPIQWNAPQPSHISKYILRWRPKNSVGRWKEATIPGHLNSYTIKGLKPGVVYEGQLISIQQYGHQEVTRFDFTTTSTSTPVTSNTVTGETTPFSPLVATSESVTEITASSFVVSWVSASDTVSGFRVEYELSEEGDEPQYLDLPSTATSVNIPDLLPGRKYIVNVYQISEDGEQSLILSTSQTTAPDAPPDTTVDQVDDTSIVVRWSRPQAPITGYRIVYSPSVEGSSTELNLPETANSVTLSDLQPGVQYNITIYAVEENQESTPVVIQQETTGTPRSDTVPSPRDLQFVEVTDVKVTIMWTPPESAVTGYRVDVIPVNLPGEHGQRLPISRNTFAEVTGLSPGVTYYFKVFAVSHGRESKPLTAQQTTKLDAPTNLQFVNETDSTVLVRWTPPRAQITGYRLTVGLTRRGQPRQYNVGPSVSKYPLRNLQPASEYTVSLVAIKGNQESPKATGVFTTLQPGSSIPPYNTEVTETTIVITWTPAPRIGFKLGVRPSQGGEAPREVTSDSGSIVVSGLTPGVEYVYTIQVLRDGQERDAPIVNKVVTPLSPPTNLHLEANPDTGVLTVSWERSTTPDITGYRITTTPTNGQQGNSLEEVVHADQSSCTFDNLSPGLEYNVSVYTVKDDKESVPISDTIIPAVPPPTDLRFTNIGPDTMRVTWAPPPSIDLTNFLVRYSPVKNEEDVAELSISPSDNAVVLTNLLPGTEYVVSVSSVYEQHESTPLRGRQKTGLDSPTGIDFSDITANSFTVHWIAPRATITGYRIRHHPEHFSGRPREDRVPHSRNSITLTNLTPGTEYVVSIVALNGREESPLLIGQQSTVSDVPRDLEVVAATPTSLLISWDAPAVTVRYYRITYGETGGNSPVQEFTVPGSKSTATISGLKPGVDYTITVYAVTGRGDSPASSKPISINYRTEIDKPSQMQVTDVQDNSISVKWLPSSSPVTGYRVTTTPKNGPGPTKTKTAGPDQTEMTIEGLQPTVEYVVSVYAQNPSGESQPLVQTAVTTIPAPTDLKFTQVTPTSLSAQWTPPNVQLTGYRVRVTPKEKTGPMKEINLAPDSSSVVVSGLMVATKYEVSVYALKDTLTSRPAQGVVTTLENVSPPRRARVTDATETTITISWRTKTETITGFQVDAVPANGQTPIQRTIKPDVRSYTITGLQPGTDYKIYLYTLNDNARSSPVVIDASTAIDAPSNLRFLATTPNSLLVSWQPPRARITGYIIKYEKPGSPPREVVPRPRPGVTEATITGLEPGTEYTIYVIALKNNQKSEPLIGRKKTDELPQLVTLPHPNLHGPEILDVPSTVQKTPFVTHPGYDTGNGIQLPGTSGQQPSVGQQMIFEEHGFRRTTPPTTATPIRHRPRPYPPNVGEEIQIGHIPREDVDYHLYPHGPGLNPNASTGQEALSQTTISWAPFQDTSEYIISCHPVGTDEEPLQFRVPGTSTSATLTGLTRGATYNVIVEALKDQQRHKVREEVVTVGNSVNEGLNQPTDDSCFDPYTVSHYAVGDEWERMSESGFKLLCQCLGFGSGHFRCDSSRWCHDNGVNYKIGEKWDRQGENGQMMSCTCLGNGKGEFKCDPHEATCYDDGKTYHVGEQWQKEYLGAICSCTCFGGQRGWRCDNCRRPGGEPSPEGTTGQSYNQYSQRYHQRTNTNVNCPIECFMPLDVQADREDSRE

[4] = molecular target: T3, Human collagen type I (human, UniProt P02452 162-1218; P08123 80-1119); experiment: as above
T3 construct: Bought protein, immobilized at 0.5 µg per well; also called collagen I
T3 sequence (P02452 162-1218, chain 1 of 2): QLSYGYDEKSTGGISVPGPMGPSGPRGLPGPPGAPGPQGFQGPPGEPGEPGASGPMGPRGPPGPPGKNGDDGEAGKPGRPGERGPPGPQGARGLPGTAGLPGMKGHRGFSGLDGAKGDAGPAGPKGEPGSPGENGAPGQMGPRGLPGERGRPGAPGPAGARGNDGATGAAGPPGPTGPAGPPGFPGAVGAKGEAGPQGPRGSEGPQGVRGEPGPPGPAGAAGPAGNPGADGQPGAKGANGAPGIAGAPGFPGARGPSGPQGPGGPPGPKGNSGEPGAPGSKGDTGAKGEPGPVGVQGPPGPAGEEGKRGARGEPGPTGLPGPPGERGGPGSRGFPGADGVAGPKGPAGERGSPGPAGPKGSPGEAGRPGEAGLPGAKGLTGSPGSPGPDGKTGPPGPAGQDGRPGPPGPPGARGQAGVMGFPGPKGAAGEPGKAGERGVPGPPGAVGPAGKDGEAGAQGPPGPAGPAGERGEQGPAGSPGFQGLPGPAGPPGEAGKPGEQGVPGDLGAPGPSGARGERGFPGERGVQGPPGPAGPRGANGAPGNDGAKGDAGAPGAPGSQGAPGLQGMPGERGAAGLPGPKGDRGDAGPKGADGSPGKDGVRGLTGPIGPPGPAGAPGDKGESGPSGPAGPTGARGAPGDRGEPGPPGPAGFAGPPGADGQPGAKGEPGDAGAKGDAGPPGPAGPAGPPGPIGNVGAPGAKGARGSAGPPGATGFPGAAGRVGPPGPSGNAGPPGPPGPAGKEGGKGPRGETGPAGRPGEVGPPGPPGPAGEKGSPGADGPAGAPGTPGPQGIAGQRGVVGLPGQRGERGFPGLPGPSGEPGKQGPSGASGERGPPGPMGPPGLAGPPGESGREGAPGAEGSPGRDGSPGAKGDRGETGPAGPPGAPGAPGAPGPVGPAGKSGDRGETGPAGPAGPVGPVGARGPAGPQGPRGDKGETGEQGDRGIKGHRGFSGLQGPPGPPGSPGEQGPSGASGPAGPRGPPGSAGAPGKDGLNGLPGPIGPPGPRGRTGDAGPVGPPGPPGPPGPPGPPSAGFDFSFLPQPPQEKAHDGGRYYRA
T3 sequence (P08123 80-1119, chain 2 of 2): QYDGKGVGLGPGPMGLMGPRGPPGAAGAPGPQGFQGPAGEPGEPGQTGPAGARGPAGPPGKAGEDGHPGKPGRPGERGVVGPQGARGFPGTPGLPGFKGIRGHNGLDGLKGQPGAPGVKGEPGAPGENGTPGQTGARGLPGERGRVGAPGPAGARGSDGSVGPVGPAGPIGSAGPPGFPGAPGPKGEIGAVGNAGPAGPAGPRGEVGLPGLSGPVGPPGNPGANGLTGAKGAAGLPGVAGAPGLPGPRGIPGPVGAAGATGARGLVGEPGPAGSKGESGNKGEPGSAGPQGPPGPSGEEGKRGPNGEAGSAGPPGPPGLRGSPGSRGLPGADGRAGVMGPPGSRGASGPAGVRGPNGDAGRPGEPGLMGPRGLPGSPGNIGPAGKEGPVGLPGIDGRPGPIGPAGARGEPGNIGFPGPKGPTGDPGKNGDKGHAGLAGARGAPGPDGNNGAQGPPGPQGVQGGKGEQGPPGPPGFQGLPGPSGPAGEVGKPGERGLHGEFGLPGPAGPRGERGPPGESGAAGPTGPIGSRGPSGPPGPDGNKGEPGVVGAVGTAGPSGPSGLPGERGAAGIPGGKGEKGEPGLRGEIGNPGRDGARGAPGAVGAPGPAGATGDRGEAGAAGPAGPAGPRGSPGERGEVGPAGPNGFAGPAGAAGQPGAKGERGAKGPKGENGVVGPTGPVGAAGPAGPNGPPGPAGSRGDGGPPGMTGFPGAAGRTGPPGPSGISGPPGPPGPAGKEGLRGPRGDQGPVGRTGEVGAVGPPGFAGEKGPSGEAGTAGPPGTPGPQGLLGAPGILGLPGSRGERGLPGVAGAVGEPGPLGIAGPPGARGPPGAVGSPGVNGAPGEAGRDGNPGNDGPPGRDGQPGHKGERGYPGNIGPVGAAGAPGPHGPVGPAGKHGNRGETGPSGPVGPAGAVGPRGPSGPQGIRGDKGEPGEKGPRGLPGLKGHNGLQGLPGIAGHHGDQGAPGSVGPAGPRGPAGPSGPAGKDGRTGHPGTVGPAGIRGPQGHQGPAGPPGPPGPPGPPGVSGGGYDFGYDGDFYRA

[5] = molecular target: T1, Plasminogen-depleted human fibrinogen; experiment: 96-well plate binding assay, immobilized host protein, His-tagged peptide, A600

Row | Binder | binding result [1] | binding result [2] | binding result [3] | binding result [4] | binding result [5]
1 | HHHHHHSIRRRLEVTFESHEVIHVRAVEDV (also called peptide 11) [Tp0751 peptide p11] | binds | – | – | – | –
2 | B1 | – | no binding (tested: 2.0 µg per well) | no binding (tested: 2.0 µg per well) | no binding (tested: 2.0 µg per well) | –
3 | B2 | – | no binding (tested: 2.0 µg per well) | no binding (tested: 2.0 µg per well) | no binding (tested: 2.0 µg per well) | –
4 | B3 | – | no binding (tested: 2.0 µg per well) | no binding (tested: 2.0 µg per well) | no binding (tested: 2.0 µg per well) | –
5 | B4 | – | – | – | – | binds
6 | B5 | – | no binding (tested: 2.0 µg per well) | no binding (tested: 2.0 µg per well) | no binding (tested: 2.0 µg per well) | –
7 | HHHHHHTSNDWGQSLAILHEPQLGILQAGI (Scrambled synthetic peptide) [scrambled version of Tp0751 peptide 6 (p6scr)] | – | no binding (tested: 2.0 µg per well) | no binding (tested: 2.0 µg per well) | no binding (tested: 2.0 µg per well) | –
8 | HHHHHHMRLTPGWHTANQIRPQAQGVATAA (Scrambled synthetic peptide) [scrambled version of Tp0751 peptide 4 (p4scr)] | – | no binding (tested: 2.0 µg per well) | no binding (tested: 2.0 µg per well) | no binding (tested: 2.0 µg per well) | –
9 | B6 | binds | – | – | – | –
10 | B7 | – | – | – | – | binds

Source: US20160129100A1 (UVIC INDUSTRY PARTNERSHIPS, published 2016)
